What was measured:
human CCR5 [1] = molecular target: T1, human CCR5 (Homo sapiens, UniProt P51681); assay: Migration (chemotaxis) assay with CHO-K1-hCCR5 cells, ATPlite readout; assay type: cell-based; design: Production of the full length protein was confirmed by western blot; expressed in transfected cells; host or cells: CHO-K1; conditions: for chemotactic response / direct induction of migration, agent alone: single agent over its concentration range (MVC 0.0045-10 μM; CCL5 0.0007-0.50 μM), FIG. 4, FIG. 5; for concentrations at which CCL5 induced migration was inhibited: constant dose of CCL5 0.005 μM
Source text: This experiment was designed to investigate the role of PRO 140 on chemotaxis induced by CCL5 engagement of the CCR5 receptor on CHO-CCR5 target cells (CHO-K1 cell line).
a. Cell Lines: The CHO-K1 cell line was transfected with a human CCR5 expression plasmid and selected for expression. Production of the full length protein was confirmed by western blot. Fluorescence-activated cell sorting (FACS) analysis was used to sort for cells that expressed CCR5 on the surface and these cells were purified and expanded.
b. Methods: Migration assays were done in Multiscreen MC plates using CHO-K1-hCCR5 cells in the upper chamber and with media and test agents in the bottom chamber. The agents tested included: PRO 140, Maraviroc (MVC), CCL5, forskolin (FSK), and an IgG4 control as single agents, and PRO 140+CCL5, and Maraviroc+CCL5 as combined agents. The effects on the Chemotaxis Index were measured over a wide concentration range of the test substance. The Chemotaxis Index was calculated as the migration of cells into the lower chamber with a test substance divided by the migration of cells into the lower chamber without the test substance or with a control substance. Migration was measured using the ATPlite assay. All assays were performed in triplicate. Data analysis was determined by the Chemotaxis Index over a wide concentration range of the test substance. Dose ranges of test agents were as follows: PRO 140 was 0.0045-10 ug/ml; MVC was 0.0045-10 μM; CCL5 was 0.0007-0.50 μM; FSK was 0.0045-10 μM; IgG4 control was 0.0045-10 μg/ml.

human CCR5 [2] = molecular target: T1, human CCR5; assay: cAMP accumulation in primary CD4+ CCR5+ T cells (radioimmunoassay); assay type: cell-based; design: Primary CD4+ cell lines were prepared from healthy human donors and grown for 7-10 days prior to sorting for CD4+ CCR5+ T cells; endogenous in cells; host or cells: primary human CD4+ CCR5+ T cells (PHA/IL-2 expanded PBMC, FACS sorted); conditions: for cAMP accumulation (stimulated): single agent with rolipram 20 uM and forskolin 10 uM; for cAMP accumulation (stimulated) / cAMP accumulation (unstimulated, basal): PRO 140 1 ug/ml, CCL5 0.1 uM; for cAMP accumulation (unstimulated, basal): single agent with rolipram 20 uM, 37° C., 10 minutes; for effect on cAMP levels as single agent: single agents, CD4+ CCR5+ T cells
Description: The first set of experiments was designed to see if PRO 140 has antagonist and/or agonist activity for alternative signaling pathways known to be activated downstream of CCR5 engagement, such as G-protein mediated modulation of intracellular cyclic AMP (cAMP) or specific tyrosine kinase activation.
a. Cell Lines: Primary CD4+ cell lines were prepared from healthy human donors and grown for 7-10 days prior to sorting for CD4+ CCR5+ T cells. PBMC were stimulated with 1 ug/ml of PHA-L Sigma (2E6/well in 24 well plates). PHA lines were expanded using 30 U/ml IL-2 for 24 hours after stimulation and every other day until FACS sorting for CD4+ CCR5+ T cells (on days 7-10). FACS sorting was done using anti-human CD4-percp-Cy5.5 clone RPA-T4, Mouse IgG1k, at 25 ug/ml, with a working concentration of 0.125 ug/ml. Anti-human CCR5-PE clone NP-6G4, Mouse IgG1k, concentration 25 ug/ml, working concentration 1.25 ug/ml was used.
b. Methods: Cell lines were assayed for cAMP levels in the absence or presence of rolipram (20 uM, a cyclic nucleotide phosphodiesterase-4 (PDF-4) inhibitor) with either no addition (basal cAMP) or in response to forskolin (FSK) (10 uM, a non-specific activator of cAMP synthesis), PRO 140 (1 ug/ml), forskolin+PRO 140, CCL5 (0.1 uM), CCL5+ forskolin, or PRO 140+ CCL5+ forskolin. Incubations (0.5E6 cells/ml) were conducted at 37° C. for 10 minutes and then terminated by addition of ice-cold 7.5% trichloroacetic acid (TCA). cAMP was quantified by radioimmunoassay. Statistical significance was determined by unpaired, one-tailed t test analysis using GraphPad prism software, version 4.0

T1 sequence (P51681 whole entry): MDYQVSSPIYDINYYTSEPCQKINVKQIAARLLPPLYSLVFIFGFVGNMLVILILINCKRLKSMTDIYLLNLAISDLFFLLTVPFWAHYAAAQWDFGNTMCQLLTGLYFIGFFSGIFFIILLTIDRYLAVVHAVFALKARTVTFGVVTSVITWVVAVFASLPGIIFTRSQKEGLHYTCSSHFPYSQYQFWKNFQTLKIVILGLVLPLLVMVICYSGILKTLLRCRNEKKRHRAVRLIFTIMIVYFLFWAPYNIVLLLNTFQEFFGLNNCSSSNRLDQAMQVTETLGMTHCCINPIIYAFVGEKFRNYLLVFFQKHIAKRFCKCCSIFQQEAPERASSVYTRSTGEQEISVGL

CCL5: C-C chemokine ligand 5, inflammatory chemokine also known as RANTES; natural CCR5 ligand [reference compound]
chemotactic response / direct induction of migration, agent alone (human CCR5 [1]): pronounced | cAMP accumulation (stimulated) (human CCR5 [2]; FIG. 2): 3800 fmoles cAMP/0.5E6 cells | cAMP accumulation (unstimulated, basal) (human CCR5 [2]; no forskolin, FIG. 1): 60 fmoles cAMP/0.5E6 cells | effect on cAMP levels as single agent (human CCR5 [2]): decreased cAMP levels

Maraviroc
concentration range in which the chemotactic response was significant (human CCR5 [1]; MVC alone, FIG. 4): above 0.01 μM | concentrations at which CCL5 induced migration was inhibited (human CCR5 [1]; FIG. 5): above 0.05 μM | chemotactic response / direct induction of migration, agent alone (human CCR5 [1]; listed as MVC): significant direct induction of migration

B1: PRO 140: a known humanized monoclonal antibody CCR5 antagonist with anti-HIV properties (antibody, chains of the INN, looked up, V domains shown)
VH: EVQLVESGGGLVKPGGSLRLSCAASGYTFSNYWIGWVRQAPGKGLEWIGDIYPGGNYIRNNEKFKDKTTLSADTSKNTAYLQMNSLKTEDTAVYYCGSSFGSNYVFAWFTYWGQGTLVTVSS
VL: DIVMTQSPLSLPVTPGEPASISCRSSQRLLSSYGHTYLHWYLQKPGQSPQLLIYEVSNRFSGVPDRFSGSGSGTDFTLKISRVEAEDVGVYYCSQSTHVPLTFGQGTKVEIK
Chemotaxis Index (chemotactic response), agent alone (human CCR5 [1]; FIG. 4, PRO 140 alone, concentration range 0.0045-10 μg/ml): 0 | Chemotaxis Index, agent alone (human CCR5 [1]; FIG. 6, PRO 140 alone, concentration range 0.0045-4.0 μg/ml): less than 3 | concentrations at which CCL5 induced migration was inhibited (human CCR5 [1]; FIG. 6): above 0.4 μg/ml | effect on CCL5 triggered decrease in cAMP levels (human CCR5 [2]; PRO 140 combined with CCL5): diminished the effects of CCL5 on decreasing cAMP | cAMP accumulation (stimulated) in the presence of CCL5 (human CCR5 [2]; rolipram + PRO 140 1 ug/ml + CCL5 0.1 uM + forskolin 10 uM, FIG. 2): 5700 fmoles cAMP/0.5E6 cells | cAMP accumulation (unstimulated, basal) in the presence of CCL5 (human CCR5 [2]; rolipram + PRO 140 1 ug/ml + CCL5 0.1 uM, no forskolin, FIG. 1): 107 fmoles cAMP/0.5E6 cells | cAMP accumulation (stimulated) (human CCR5 [2]; FIG. 2): 6300 fmoles cAMP/0.5E6 cells | cAMP accumulation (unstimulated, basal) (human CCR5 [2]; no forskolin, FIG. 1): 110 fmoles cAMP/0.5E6 cells | effect on cAMP levels as single agent (human CCR5 [2]): no effect on cAMP levels
